For orientation: IC50 means the concentration that inhibits the measured activity by half. A high value points to weaker potency. What is called EC50 is the concentration that produces a half-maximal response.

The target in test [1] is T1, biotinylated Human PD1 (AcroBiosystems, reference EP-101) (human, UniProt Q15116 25-167, limits assumed, biotinylated (site not stated)).
T1 construct: Kit reagent; also called Biotin-PD-1Fc; not shown: Fc part, named only as 'Biotin-PD-1Fc'
Kind of test: competitive ELISA: hPDL1 immobilized, biotinylated human PD1 at 0.66 µg/ml mixed with the antibody, streptavidin detection. Here is the method:
To measure antagonist activity of the bifunctional antibody, a competitive ELISA assay was performed by PD-1:PD-L1 Inhibitor Screening ELISA Assay Pair (AcroBiosystems; USA; reference EP-101). In this assay, recombinant hPDL1 was immobilized on plastic at 2 μg/ml in PBS pH 7.4 buffer.
Competitive ELISA assay was performed by PD-1:PD-L1 Inhibitor Screening ELISA Assay Pair (Acro Biosystems; USA; reference EP-101). In this assay, recombinant hPDL1 was immobilized on plastic at 2 μg/ml in PBS pH 7.4 buffer.
(In general: In an ELISA, binding on a coated surface is turned into a signal by an enzyme label.)

The target in test [2] is T2, Recombinant hPD1 (Sino Biologicals, reference 10377-H08H) (human, UniProt Q15116 25-167).
T2 construct: Bought recombinant protein; also called Human recombinant PD-1 (rPD1) protein; human PD-1
T2 sequence (Q15116 25-167 limits assumed): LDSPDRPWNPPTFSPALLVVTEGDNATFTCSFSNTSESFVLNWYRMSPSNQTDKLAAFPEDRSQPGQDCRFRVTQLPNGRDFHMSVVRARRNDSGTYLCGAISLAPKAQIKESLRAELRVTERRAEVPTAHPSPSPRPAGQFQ
The test is described as follows: ELISA, recombinant hPD1 immobilized, detection with peroxidase-labeled anti-human IgG. Here is the method: Recombinant hPD1 (Sino Biologicals, Beijing, China; reference 10377-H08H) was immobilized on plastic at […] in carbonate buffer (pH 9.2) and purified antibody was added to measure binding.
For activity ELISA assay, recombinant hPD1 (Sino Biologicals, Beijing, China; reference 10377-H08H) was immobilized on plastic at 0.5 μg/ml in carbonate buffer (pH 9.2) and purified antibody were added to measure binding.

T1 sequence (Q15116 25-167 limits assumed): as above

B1: anti PD-1*1/SIRPg*1 (bispecific antibody, human IgG1, kappa, N297A)
chain: DKTHTCPPCPAPELLGGPSVFLFPPKPKDTLMISRTPEVTCVVVDVSHEDPEVKFNWYVDGVEVHNAKTKPREEQYASTYRVVSVLTVLHQDWLNGKEYKCKVSNKALPAPIEKTISKAKGQPREPQVYTLPPCRDELTKNQVSLWCLVKGFYPSDIAVEWESNGQPENNYKTTPPVLDSDGSFFLYSKLTVDKSRWQQGNVFSCSVMHEALHNHYTQKSLSLSPGK
heavy: not shown
light: DVVMTQSPLSLPVTLGQPASISCRSSQSLVHANTNTYLEWYQQRPGQSPRLLIYKVSNRFSGVPDRFSGSGSGTDFTLKISRVEAEDVGVYYCFQGTHVPNTFGQGTKLEIKRTVAAPSVFIFPPSDEQLKSGTASVVCLLNNFYPREAKVQWKVDNALQSGNSQESVTEQDSKDSTYSLSSTLTLSKADYEKHKVYACEVTHQGLSSPVTKSFNRGEC
notes: IgG1 N298A isotype, knob-into-hole; also called anti-PD-1*1/SIRP*1; Anti PD-1*1 SIRP*1
Turning to B1, the half-inhibitory concentration (IC50) in test [1] worked out at 6.9 nM. For the same molecule, in test [2], the EC50 was found to be 0.33 nM.
